Here are results for two variants from IntAct's records for PubMed 22759634.

The labels stand for the following.
B1: DNA annealing helicase and endonuclease ZRANB3 (Homo sapiens), Q5FWF4 (parent)
chain: MPRVHNIKKSLTPHISCVTNESDNLLDFLPDRLRAKLLPFQKDGIIFALKRNGRCMVADEMGLGKTIQAIGITYFYKEEWPLLIVVPSSLRYPWTEEIEKWIPELSPEEINVIQNKTDVRRMSTSKVTVLGYGLLTADAKTLIDALNNQNFKVVIVDESHYMKSRNATRSRILLPIVQKARRAILLTGTPALGRPEELFMQIEALFPQKFGRWTDYAKRYCNAHIRYFGKRPQWDCRGASNLNELHQLLSDIMIRRLKTEVLTQLPPKVRQRIPFDLPSAAAKELNTSFEEWEKIMRTPNSGAMETVMGLITRMFKQTAIAKAGAVKDYIKMMLQNDSLKFLVFAHHLSMLQACTEAVIENKTRYIRIDGSVSSSERIHLVNQFQKDPDTRVAILSIQAAGQGLTFTAASHVVFAELYWDPGHIKQAEDRAHRIGQCSSVNIHYLIANGTLDTLMWGMLNRKAQVTGSTLNGRKEKIQAEEGDKEKWDFLQFAEAWTPNDSSEELRKEALFTHFEKEKQHDIRSFFVPQPKKRQLMTSCDESKRFREENTVVSSDPTKTAARDIIDYESDVEPETKRLKLAASEDHCSPSEETPSQSKQIRTPLVESVQEAKAQLTTPAFPVEGWQCSLCTYINNSELPYCEMCETPQGSAVMQIDSLNHIQDKNEKDDSQKDTSKKVQTISDCEKQALAQSEPGQLADSKEETPKIEKEDGLTSQPGNEQWKSSDTLPVYDTLMFCASRNTDRIHIYTKDGKQMSCNFIPLDIKLDLWEDLPASFQLKQYRSLILRFVREWSSLTAMKQRIIRKSGQLFCSPILALEEITKQQTKQNCTKRYITKEDVAVASMDKVKNVGGHVRLITKESRPRDPFTKKLLEDGACVPFLNPYTVQADLTVKPSTSKGYLQAVDNEGNPLCLRCQQPTCQTKQACKANSWDSRFCSLKCQEEFWIRSNNSYLRAKVFETEHGVCQLCNVNAQELFLRLRDAPKSQRKNLLYATWTSKLPLEQLNEMIRNPGEGHFWQVDHIKPVYGGGGQCSLDNLQTLCTVCHKERTARQAKERSQVRRQSLASKHGSDITRFLVKK

The variants in one assay derive from B1. The following applies: with pcna_human PCNA.
For Q519A;F525A;F526A;Y632A, the “effect of a mutation on the interaction” value is on record as “decreasing interaction strength”.

The variants in a further assay derive from B1. The following applies: with pcna_human PCNA. This is another data set of the same source.
On to Q519A;F525A;F526A, for which the “effect of a mutation on the interaction” value is “disrupting interaction strength”.
